# Source: PMC12523770
# Target: MyD88 (myeloid differentiation primary response 88), endogenous in mouse bone marrow-derived macrophages (mouse (endogenous in BMDMs)), P22366
# Assay: cross-linking; WT BMDMs stimulated with 1 µg/mL poly(I:C) for the indicated times (or primed with LPS, positive control); cleared freeze-thaw lysate with 2 mM DSS, 2 h, room temperature; SDS-PAGE, anti-MyD88 blot
# Conditions: remark: other sources report otherwise
binder,measurement,value
"MyD88 (myeloid differentiation primary response 88), endogenous in mouse bone marrow-derived macrophages, P22366 1-296 (natural protein) MSAGDPRVGSGSLDSFMFSIPLVALNVGVRRRLSLFLNPRTPVAADWTLLAEEMGFEYLEIRELETRPDPTRSLLDAWQGRSGASVGRLLELLALLDREDILKELKSRIEEDCQKYLGKQQNQESEKPLQVARVESSVPQTKELGGITTLDDPLGQTPELFDAFICYCPNDIEFVQEMIRQLEQTDYRLKLCVSDRDVLPGTCVWSIASELIEKRCRRMVVVVSDDYLQSKECDFQTKFALSLSPGVQQKRLIPIKYKAMKKDFPSILRFITICDYTNPCTKSWFWTRLAKALSLP",stoichiometry N,2
